Experimental data reported in patent US20120208237A1 (Novo Nordisk, published 2012).

Biological target: T1, KIR2DS3 expressed on transfected cells (human, UniProt Q14952 22-304)
T1 construct: whole, on cells
Test: flow cytometry on cells transfected with KIR2DS3 (fifth column; its head is printed KIRDLS1 a second time, the legend's order gives KIR2DS3)
Description: The KIR2DL cross-reactive mAbs were then tested for their ability to react with KIR at the surface of cells by flow cytometry. Briefly, the binding of the human anti-KIR mAbs was tested by incubating them with various cell lines stably over-expressing KIRs (e.g., YTS-2DL1, BWZ-KIR2DL2 and BWZ-KIR2DS4) or not expressing KIRs (e.g., YTS and BWZ). Briefly, cells were incubated with various concentrations (typically 0-50 μg/ml) of human anti-KIR mAb1-7F9 in DMEM-medium containing 2% FCS. After incubation, cells were washed and incubated with APC-conjugated secondary antibodies specific for human IgG. All incubations and washing steps were performed at 0-4° C. Subsequently, cells were washed, resuspended in PBS, and analyzed by flow cytometry on a FACScalibur or a FACScanto (both from Beckton Dickinson).

T1 sequence (Q14952 22-304): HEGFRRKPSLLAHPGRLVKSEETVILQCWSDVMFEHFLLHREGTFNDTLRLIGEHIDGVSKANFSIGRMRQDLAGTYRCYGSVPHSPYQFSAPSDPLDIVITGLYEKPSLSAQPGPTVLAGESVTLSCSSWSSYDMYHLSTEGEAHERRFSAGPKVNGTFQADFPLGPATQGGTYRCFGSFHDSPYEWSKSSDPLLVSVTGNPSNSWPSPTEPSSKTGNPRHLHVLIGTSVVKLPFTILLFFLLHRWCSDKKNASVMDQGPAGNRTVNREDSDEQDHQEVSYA

B1: human monoclonal antibody 1-7F9 (antibody, human IgG4, kappa, V domains shown)
VH: QVQLVQSGAEVKKPGSSVKVSCKASGGTFSFYAISWVRQAPGQGLEWMGGFIPIFGAANYAQKFQGRVTITADESTSTAYMELSSLRSDDTAVYYCARIPSGSYYYDYDMDVWGQGTTVTVSS
VL: EIVLTQSPVTLSLSPGERATLSCRASQSVSSYLAWYQQKPGQAPRLLIYDASNRATGIPARFSGSGSGTDFTLTISSLEPEDFAVYYCQQRSNWMYTFGQGTKLEIKR
notes: also called HuKIR 1-7F9; HuKIR1-7F9
B1: no binding (tested: 1 µg/ml).
